The values below come from PMC6685158.

The target in the assay is NKG2D receptor on primary human NK cells (human (endogenous in primary NK cells)) (UniProt P26718).
Sequence of UniProt P26718 (P26718 whole entry): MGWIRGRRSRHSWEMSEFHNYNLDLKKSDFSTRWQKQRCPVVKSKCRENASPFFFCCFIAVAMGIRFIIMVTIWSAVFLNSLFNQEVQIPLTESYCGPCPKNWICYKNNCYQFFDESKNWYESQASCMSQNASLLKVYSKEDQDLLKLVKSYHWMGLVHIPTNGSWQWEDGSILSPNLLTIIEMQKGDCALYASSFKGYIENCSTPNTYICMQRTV

Consider “Full-length human MICA*002 on C1R-MICA*002 cells (from UniProt Q29983 24-383) (ligand)”, for which the NK cell cytolytic activity (7-AAD uptake of CD56- target cells), fresh NK cells with target cells 4 h at 10 to 1 effector to target ratio; parental C1R control approximately 15% was determined as 40%.
